In US20230077716A1 (published 2023) one finds Kd data, which are given here for one molecule.

“And” between values parts separate entries of the source, which are not always exact repeats. Identical values can stand only once.

By Kd is commonly meant a measure of binding affinity in units of concentration.

In this experiment the target is recombinant B/Phuket/3073/2013 NA ectodomain (tetramer) (UniProt P16199 79-465). The experiment is described as follows: BLI. Background: BLI is a label-free optical method that tracks binding on a fibre tip over time.

B1: 2E01 Fab (Fab, V domains shown)
VH: EVQLVQSGAEVKKPGSSVKVSCKASGYTFINHALSWVRQAPGQGLEWVGGIIPIFGLAKYGQKFQDRVTITADESTKTAYMDLRSLRSDDTAVYYCARDTVAVYEDFDWSSPYFFYMDVWGKGTTVTVSS
VL: EIVLTQSPATLSLFPGERATLSCRASQSAGSKSLAWYQHKVGQPPRLLINGASSRATGIPDRFSGSGSGPDFNLTISRLEPEDFAVYYCQRYGTSLVTFGGGTKVEIK
On to B1, for which the Kd was 0.441 µM and 0.15 µM.
